For test [1], the target named is Jurkat (human) (UniProt P07766). Nature of the test: FACS binding, Jurkat cells. The note with it: bispecific antibody.
For test [2], the target named is SNU620 (human) (UniProt P56856). Nature of the test: FACS binding, SNU620 cells. The settings on record: bispecific antibody. In general terms: Flow cytometry measures light scatter and fluorescence of single cells or particles in a stream.

Chain of Jurkat (human) (P07766 23-207): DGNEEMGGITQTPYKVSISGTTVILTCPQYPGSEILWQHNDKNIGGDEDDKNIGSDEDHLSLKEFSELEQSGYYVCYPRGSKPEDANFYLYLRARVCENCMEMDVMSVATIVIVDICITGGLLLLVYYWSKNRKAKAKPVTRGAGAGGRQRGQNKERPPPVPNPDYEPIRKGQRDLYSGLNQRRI

Turning to AMG-910, the EC50 (as a rule, the concentration giving half of the maximal effect) in test [1] stood at 0.55 nM; in test [2], 87.8 nM.

These data come from US20240117035A1.
